Data on one substance can be found in paper PMC9359175.

pKd: −log10 of the molar value.

As a reminder, the pKd is the Kd on a negative log10 scale, so that one unit is a factor of ten. Read a high pKd as a small Kd.

What all share (experiment): ITC; […]; 298 K; 20 mM HEPES pH 7.5, 150 mM NaCl; […]
For orientation: Isothermal titration calorimetry measures the heat released or taken up as one component is titrated into another.

Experiment [1] concerns the target 5HB-H1 (SARS-CoV-2 5-helix bundle, longest construct) (SARS-CoV-2) (UniProt P0DTC2).
Experiment [2] concerns the target 5HB-H3 (SARS-CoV-2 5-helix bundle, truncated construct) (SARS-CoV-2) (UniProt P0DTC2).
The target of experiment [3] is 5HB-H4 (SARS-CoV-2 5-helix bundle, shortest construct) (SARS-CoV-2) (UniProt P0DTC2).

For the substance “HR2P, 36-mer peptide derived from SARS-CoV-2 S HR2 (D1168-L1203)”, the figures for the pKd in experiment [1], in experiment [2] and in experiment [3] were 8.05, 7.74 and 6.35, respectively.
